One series concerns human erythrocytes. Kind of series: Erythrocytes hemagglutination. The series is classed as cell-based. The note with it: blood group not named.
A short description of series [1]: Stability of 125I-odorranalectin in mice plasma in vitro. The series is classed as in vitro ADME. As to conditions: mice plasma 100% (v/v) and 50% in PBS pH 7.4, 5 µCi, 37 °C, sampled 0-5 h; radiochemical purity by silica gel paper chromatography and HPLC with radioactive detector. The procedure: In order to evaluate the stability of ^125I- odorranalectin in vitro, a degradation experiment of ^125I-odorranalectin in mice plasma was performed. The details are provided in the supplementary materials (Materials and Methods S1).
Stability of ^125I-odorranalectin in vitro. In order to evaluate the stability of ^125I- odorranalectin in vitro, a degradation experiment of ^125I-odorranalectin in mice plasma was performed. Briefly, 5 µCi ^125I-odorranalectin (about 10 µl) was added to 790 µl plasma (100%, v/v) freshly prepared and 400 µL plasma (50%) admixed with 390 µl PBS (pH 7.4) in two 1.5-ml centrifuge tubes, respectively, which maintained at 37 °C in a rolling water-bath incubator. Then at each time point (0, 1, 2, 3, 4 and 5 h), a glass microcap was used to take samples for silica gel paper chromatography (SGPC) analysis and high-performance liquid chromatography (HPLC) for calculating the radiochemical purity of ^125I-odorranalectin. In detail, the developing agent of SGPC was methanol: water = 85:15 (v/v); After spotted and the solvent reached the frontier, the silica gel paper strip was dried and cut to ten equations (Fig. S3 and Table S7), and then set in 10 tubes, following determined radiocounting of each piece in a SN-695 Intellectual Radio-immunity γ Measurement (Shanghai Institute of Nuclear Research Ri Huan Instrument Factory, China), respectively. […]

The nature of series [2]: SPR, odorranalectin and its mutants binding L-fucose. The note with it: peptide immobilized, L-fucose as analyte, NA = no binding to L-fucose, read-out: binding affinity (KD). As to the method:
Real time detection of odorranalectin and its mutants binding to glycoproteins and L-fucose was recorded by using a Biacore 3000 [21]–[24]. The details are provided in the supplementary materials (Materials and Methods S1).
SPR Analysis. Real time detection of odorranalectin and its mutants binding to glycoproteins and L-fucose was recorded by using a Biacore 3000 [21-24]. Odorranalectin was immobilized covalently via their primary amines to carboxyl groups within a dextran layer on the sensor chip CM-5 according to the manufacturer’s specifications. After chip activation with 0.4 M 1-ethyl-3- (3-dimethylaminopropyl) carbodiimide hydrochloride and 10 mM N-hydroxysuccinimide, odorranalectin or its mutants (in 10 mM sodium acetate buffer, pH 4.0) at a concentration of 100 μg/ml was passed through the flow cells at a rate of 5 μl/min. After immobilization, the chip was capped by exposure to 1 M ethanolamine (pH 8.5).
All analyses were performed at a flow rate of 30 μl/min. Before loading of analytes, the chip was equilibrated with 10 mM HEPES-buffered saline containing 3 mM EDTA and 0.005% surfactant P-20, pH 7.4 (HBS-EP). […]
Association and dissociation rate constants (ka and kd) were calculated by using BIA evaluation 4.0 software (Biacore AB, Sweden). The affinity constant (KD) was calculated from the ka and kd. […]

Series [3] in a line: Tissue distribution of 125I-odorranalectin in vivo. Also on record: species or system KM mice. As to conditions: 400 µCi·kg^-1, mice, 5-300 min, Mean ± SD, n=3. As to the method: Sixty-three female KM mice (18∼22 g) were grouped randomly into three groups receiving oral, intravenous and intranasal administration of ^125I-odorranalectin at equal radiation dose (400 µCi·kg^−1), respectively. The detail procedures are provided in the supplementary materials (Materials and Methods S1).
Each experiment was carried out in triplicate. Values are given as means±SD. All the concentration data were plotted directly as radiocounting-time curves of the blood and tissues, and the area under the curve (AUC0→t) was calculated by the trapezoidal rule. The statistical differences between per oral or intranasal administrations and intravenous administration were assessed using student's t test and P<0.05 as statistical significance.
Tissue distribution of ^125I-odorranalectin in vivo. Sixty-three female KM mice (18~22 g) were grouped randomly to three groups receiving oral, intravenous and intranasal administration at equal radiation dose (400 µCi·kg^-1), respectively. The procedure for intranasal administration was performed gently and slowly so as to allow the mice to inhale all of the preparations (each nostril 10 µl). At different time intervals (5, 15, 30, 60, 120, 180 and 300 min) following administration, blood sample was collected via eye puncture; subsequently, the mice were humanly sacrificed, and tissues such as heart, liver, spleen, lung, stomach (content removed), kidney and brain were harvested and stuffed into a special tube after the remnant blood was blotted by tissue paper, following weighing, respectively. Finally, the radiocounting of each tissue was determined in a SN-695 Intellectual Radio-immunity γ Measurement to evaluate odorranalectin intake.
Data analysis. Each experiment was carried out in triplicate. Values are given as means ± SD. All the concentration data were plotted directly as radiocounting-time curves of the blood and tissues, and the area under curve (AUC0→t) was calculated by the trapezoidal rule. The statistical differences between per oral or intranasal administrations and intravenous administration were assessed using student’s t test and P< 0.05 as statistical significance.

Positions of bridges follow the written chain, without caps; N, C: chain ends. Residues, ends and D or L forms follow the SMILES beside them. No end group written: not given here.

On to `CC(C)C[C@@H]1NC(=O)[C@H](C(C)C)NC(=O)CNC(=O)[C@H](CC(N)=O)NC(=O)[C@@H]2CCCN2C(=O)[C@H](Cc2ccc(O)cc2)NC(=O)[C@H](CCCNC(=N)N)NC(=O)[C@H](Cc2ccccc2)NC(=O)[C@@H](NC(=O)[C@H](CCCCN)NC(=O)[C@@H]2CCCN2C(=O)[C@H](CO)NC(=O)[C@H](C)NC(=O)[C@@H](N)Cc2ccc(O)cc2)CSSC[C@@H](C(=O)N[C@H](C(=O)O)[C@@H](C)O)NC(=O)[C@H](C)NC1=O` [odorranalectin] (HELM PEPTIDE1{Y.A.S.P.K.C.F.R.Y.P.N.G.V.L.A.C.T}$PEPTIDE1,PEPTIDE1,6:R3-16:R3$$$V2.0), for which, in the series with human erythrocytes, the “minimum concentration (MIC) to agglutinate intact human erythrocytes” value turned out to be 0.75 µg/mL. Also, the “Time of stability in mice plasma” value in series [1] is reported as “more than 5 hours”.
In the case of “YASPGGFRYPNGVLACT [Odorranalectin T17/G17]”, the Kd in series [2] turned out to be 8.2 mM.
As to “^125I-odorranalectin: odorranalectin labeled by 125I with iodogen method (YASPKCFRYPNGVLACT; disulfide 6-16; ends not checked; also: 125I on a tyrosine, which one is not given here)”, in series [3] (in (intranasal)), the “AUC Blood” value was 6.77±3.05 *10^7 CPM·min, the “AUC Brain” value was 0.36±0.15 *10^7 CPM·min, the “AUC Heart” value is 2.88±1.16 *10^7 CPM·min and the “AUC Kideny” value is reported as 5.17±2.10 *10^7 CPM·min. In series [3] (in (intranasal)), the “AUC Liver” value is 3.53±1.50 *10^7 CPM·min, the “AUC Lung” value was 12.50±3.77 *10^7 CPM·min, the “AUC Spleen” value is listed as 4.48±1.86 *10^7 CPM·min and the “AUC Stomach” value is reported as 125.61±44.28 *10^7 CPM·min. Moreover, in series [3] (iv), the “AUC Blood” value is reported as 5.41±1.11 *10^7 CPM·min, the “AUC Brain” value is 0.46±0.047 *10^7 CPM·min, the “AUC Heart” value was 3.37±0.51 *10^7 CPM·min and the “AUC Kideny” value is 8.47±1.41 *10^7 CPM·min. In addition, in series [3] (iv), the “AUC Liver” value was 98.51±6.22 *10^7 CPM·min, the “AUC Lung” value is recorded as 246.41±62.56 *10^7 CPM·min, the “AUC Spleen” value was 64.82±8.61 *10^7 CPM·min and the “AUC Stomach” value is 20.90±3.09 *10^7 CPM·min. In series [3] (po), the “AUC Blood” value was 4.89±0.69 *10^7 CPM·min, the “AUC Brain” value was 0.25±0.024 *10^7 CPM·min, the “AUC Heart” value is given as 1.99±0.24 *10^7 CPM·min and the “AUC Kideny” value is on record as 3.84±0.76 *10^7 CPM·min. Besides, in series [3] (po), the “AUC Liver” value is on record as 2.42±0.29 *10^7 CPM·min, the “AUC Lung” value was 4.02±0.51 *10^7 CPM·min, the “AUC Spleen” value is 3.60±0.35 *10^7 CPM·min and the “AUC Stomach” value is 126.64±32.27 *10^7 CPM·min. Besides, in series [1], the “Time of stability in mice plasma” value is “at least 5 hours”.

By Kd is commonly meant the free concentration of one partner at which half of the binding sites on the other are occupied at equilibrium, for simple one-to-one binding.

The values are drawn from paper PMC2440032, “Odorranalectin Is a Small Peptide Lectin with Potential for Drug Delivery and Targeting” (PLoS ONE, 2008).
